Test results taken from article PMC10804683, “Identification of the pyridoxal 5′‐phosphate allosteric site in human pyridox(am)ine 5′‐phosphate oxidase” (Protein Science : A Publication of the Protein Society, 2024).

Substrate: Cc1ncc(COP(=O)(O)O)c(CN)c1O
Test: purified protein, by the assay type
Details: other: F48A, 50 mM Tris–HCl pH 7.6, 37°C, 2 μM enzyme

B1: human PNPO F48A variant (Homo sapiens; F48A) (protein)
chain: MTCWLRGVTATFGRPAEWPGYLSHLCGRSAAMDLGPMRKSYRGDREAAEETHLTSLDPVKQFAAWFEEAVQCPDIGEANAMCLATCTRDGKPSARMLLLKGFGKDGFRFFTNFESRKGKELDSNPFASLVFYWEPLNRQVRVEGPVKKLPEEEAECYFHSRPKSSQIGAVVSHQSSVIPDREYLRKKNEELEQLYQDQEVPKPKSWGGYVLYPQVMEFWQGQTNRLHDRIVFRRGLPTGDSPLGPMTHRGEEDWLYERLAP
- Km: 100 ± 5 µM
- kcat: 0.1785 ± 0.003 s⁻¹
